Patent US20260258115A1 (MAPP BIOPHARMACEUTICAL, published 2026)

B1: ADI-24841 (antibody, V domains shown)
VH: QVQLVQSGAEVKKPGASVKVSCKASGYTFTSYAMHWVRQAPGQRLEWMGWINAGNGNTKYSQKFQGRVTITRDTSASTAYMELSSLRSEDTAVYYCARDGFPTNYDFWSGYSDDAFDIWGQGTMVTVSS
VL: not shown
notes: full-length IgG
B2: ADI-25518 (antibody, V domains shown)
VH: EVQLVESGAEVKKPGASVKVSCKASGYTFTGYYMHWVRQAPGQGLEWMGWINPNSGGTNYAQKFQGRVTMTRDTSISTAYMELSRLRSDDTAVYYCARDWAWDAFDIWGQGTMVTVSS
VL: QSVLIQPASVSGSPGQSITISCTGTSSDVGGYNYVSWYQQHPGKAPKLMIYDVSNRPSGVSNRFSGSKSGNTASLTISGLQAEDEADYYCSSYTSSSTLVFGGGTQLTVL
notes: full-length IgG
B3: ADI-22756 (antibody, V domains shown)
VH: EVQLLESGGGVVQPGRSLRLSCVASGFTFSTYGVHWVRQAPGKGLEWVAVISYDGANKDYADSVKGRFTISRDNSKNTLYLQMNSLRAEDTAVYYCAKMITRVLPGGFDRWGQGTLVTVSS
VL: EIVMTQSPGTLSLSPGERATLSCRASQSVSSAYLAWYQQKPGQAPRLLIYDASRRATGIPDRFSGSGSGTDFTLTISRLEPEDFAVYYCQQYGSSRFTFGQGTKVEIK
notes: full-length IgG
B4: ADI-24798 (antibody, V domains shown)
VH: EVQLLESGPGLVKPSETLSLTCTVSGGSISSYYWSWIRQPPGKGLEWIGYIYYSGSTNYNPSLKSRVTISVDTSKNQFSLKLSSVTAADTAVYYCARILGHCSGGSCYRIIDYWGQGTLVTVSS
VL: not shown
notes: full-length IgG
B5: ADI-25491 (antibody, V domains shown)
VH: EVQLLESGPGLVKPSQTLSLTCTVSGGSISSGGYYWSWIRQHPGKGLEWIGYIYYSGSTYYNPSLKSRVTISVDTSKNQFSLKLSSVTAADTAVYYCAREVVPAAIRAGYYFDYWGQGTLVTVSS
VL: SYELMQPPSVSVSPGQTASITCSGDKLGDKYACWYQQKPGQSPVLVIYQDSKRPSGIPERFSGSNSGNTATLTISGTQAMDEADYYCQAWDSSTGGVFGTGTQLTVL
notes: full-length IgG
B6: ADI-14363 (antibody, V domains shown)
VH: QVQLVESGGGLVKPGGSLRLSCAASGFTFSDYYMSWIRQAPGKGLEWVSYISGGGTYTKYADSVKGRFTISRDNAKNSVYLQMNSLRAEDTAVYYCARDVALVGWELRYGMDVWGQGTTVTVSS
VL: ETTLTQSPGTLSLSPGERATLSCRARENVNSSYLAWYQQKPGQAPRLLIYGASSRATGIPDRFSGSGSGTDFTLTISRLEPEDFAVYYCQQYAISPWTFGQGTKVEIK
notes: full-length IgG; also called Ab 31
B7: ADI-14380 (antibody, V domains shown)
VH: QVQLVQSGAEVKKPGESLKISCKGSGYTFTSYWIGWVRQLPGKGLEWMGVIFPGDSDTRYSPSFQGQVTISADKSISTAYLQWSSLKAADTAMYYCARTRLGRGFYRFDSWGQGTLVTVSS
VL: QSVLTQPPSVSAAPGQKVTISCSGSSSNIGNNYVSWYQQLPGTAPRLLIYENNERPSGIPDRFSGSKSGTSATLGITGLQTGDEADYYCATWDSGLSAGYVFGTGTKLTVL
notes: full-length IgG; also called Ab 48
B8: ADI-24854 (antibody, V domains shown)
VH: EVQLVESGGGLVKPGGSLRLSCAASGFTFSSYSMNWVRQAPGKGLEWVSSISSSSSYIYYADSVKGRFTISRDNAKNSLYLQMNSLRAEDTAVYYCARDRRFGELFYFDYWGQGTLVTVSS
VL: QSVLTQPPSVSGAPGQRVTISCTGSSSNIGAGYDVHWYQQLPGTAPKLLIYGNSNRPSGVPDRFSGSKSGTSASLAITGLQAEDEADYYCQSYDSSLSGNWVFGGGTKLTVL
notes: full-length IgG
B9: ADI-14412 (antibody, V domains shown)
VH: QVQLVQSGAEVKKPGASVKVSCKASGYTFTRYGISWVRQAPGQGLEWMGWISDYNGNTKNAEKFQGRVTMTTDTYTNIAYMELRSLRSDDTAVYYCARDWWITVGGIIAPFDYWGQGTLVTVSS
VL: ETTLTQSPGTLSLSPGERATLSCRASQSVSSDYLAWFQQKPGQAPRLLIYGASSRATDIPDRFSGSGSGTDFTLTISRLESEDFAVYYCLHYAGARTFGQGTKVEIK
notes: also called Ab 78
B10: ADI-14428 (antibody, V domains shown)
VH: EVQLLESGGGLVKPGGSLRLSCAASGFTFSDHYMSWIRQAPGKGLEWVSYISSTSSFTNYADSLKGRFTISRDNAKNSLYLQMNSLRAEDTAVYYCARPYIVALGTRAFDIWGQGTTVTVSS
VL: SYVLTQPPSVSVAPGKTARITCGGNNIGSKTVHWYQQKPGQAPVLVSYYDSDRPSGIPERFSGSNSGNTATLTISRVEAGDEADYYCQVWDGSSEHYVFGTGTKVTVL
notes: also called Ab 94
B11: ADI-14591 (antibody, V domains shown)
VH: QVQLVQSGAEVKKPGESLRISCTGSGYTFTNYWISWVRQMPGKGLEWMGRIDPTDSYTNYSPSFQGHVTISADKSISTAYLQSSSLKASDTATYYCARHRRLVPAAMSRGYYGMDVWGQGTTVTVSS
VL: EIVMTQSPSSLSASVGDRATITCRASQSISSYLNWYQQKPGKAPKLLIYAASNLQSGAPSRFSGSGSGTDFTLTISSLQPEDFATYFCQQTYSTPYTFGQGTKVEIK
notes: also called Ab 120
B12: ADI-14588 (antibody, V domains shown)
VH: QVQLVQSGAEVKKPGASVKVSCKVSGDTLTELSIHWVRQAPGKGHEWMGYFDHEDGEIMYAQKFQGRVTMTGDTSTDTAYMELSSLRSEDTAVYYCATVAAAGQFDYWGQGTLVTVSS
VL: DIQLTQSPSSLSASVGDRVTITCRARQSISTYLNWYQQKPGKAPKLLIYAASSLQSGVPSRFSGSGSGTDFTLTISSLQPEDFATYYCQQSYSSPYTFGQGTKVDIK
B13: ADI-14581 (antibody, V domains shown)
VH: QVQLVQSGAEVKKPGSSVKVSCKASGGTFSSHAFSWVRQAPGQGLEWMGGIIPSLNTANYAQKFQGRVSITADESTGTAYMELSSLRSDDTAVYFCAREVFGYGYYFDYWGQGTLVTVSS
VL: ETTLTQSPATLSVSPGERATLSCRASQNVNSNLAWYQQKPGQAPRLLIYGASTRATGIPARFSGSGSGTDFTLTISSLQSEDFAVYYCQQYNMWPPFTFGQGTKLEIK
notes: also called Ab 110
B14: ADI-14580 (antibody, V domains shown)
VH: QVQLVQSGAEVKKPGSSVKVSCKASGGTFSSYTINWVRQAPGQGLEWMGRIIPVLGMASYVQNFQGRVSITADESTSTAYMELSSLTSEDTALYYCAKGAVAAANDVFDVWGQGTTVTVSS
VL: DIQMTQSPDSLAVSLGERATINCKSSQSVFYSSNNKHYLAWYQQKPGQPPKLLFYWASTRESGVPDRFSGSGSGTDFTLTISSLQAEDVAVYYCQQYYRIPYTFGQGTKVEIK
B15: ADI-14402 (antibody, V domains shown)
VH: QVQLVQSGAEVKKPGASVKVSCKTSGYTFTNYGISWVRQAPGQGLEWMGWISAYNGNRNYAQKLQGRVTMTTDTSTSTAYMELRSLRSDDTAVYYCAREPPVIAAGDFSHWGQGTLVTVSS
VL: EIVLTQSPLSLPVTLGQPASISCRSSQSLVHSDANTYLSWFQQRPGQSPRRLIYKVSNRDSGVPDRFSGSGSGTDFTLKISRVEAEDVGVYYCMQGTHWPPDFGQGTRLEIK
notes: also called Ab 68
B16: ADI-14583 (antibody, V domains shown)
VH: QVQLVQSGAEVKEPGASVKVSCKASGYTFTNYGISWVRQAPGQGLEWLGWISAYNGNIHYAQKVQGRVTMTTDTSTSTGFMELRSLRSDDTAVYYCAREPPVIAAGDFQHWGQGTLVTVSS
VL: ETTLTQSPLSLPVTLGQPASISCRSSQSLVHSNGNTYLSWFQQRPGQSPRRLIYRVSNRDSGVPDRFSGSGSGTDFTLKISRVEAEDVGLYYCMQGTHWPPDFGQGTRLEIK
B17: ADI-14585 (antibody, V domains shown)
VH: QVQLVQSGAEVKKPGASVKVSCKASGYTFANYGIGWVRQAPGQGLEWMGWISAYNGKTNYAQKFQGRVTMTTDTSTSTAYMELRSLRSDDTAVYYCAREPPVIAAGDFPHWGQGTLVTVSS
VL: ETTLTQSPLSLPVTLGQPASISCRSSQSLEHSDLNTYLSWFQQRPGQSPRRLIYKVSNRDSGVPDRFSGSGSGTDFTLRISRVEAEDVGVYYCMQGTHWPPDFGQGTRLEIK
B18: ADI-14403 (antibody, V domains shown)
VH: QVQLVESGGGLGKPGGSLRLSCAASGFTFSGYYMSWIRQAPGKGLEWVSDISSGSSFTNYADSVKGRFTISRDNAKNSLYLQMNSLKAEDTAVYYCARVPPDSYGSGSYSGDSWGQGTLVTVSS
VL: QSVVTQPPSVSGAPGQRVTISCTGSSSNIGAGYGVHWYQQLPGTAPKLLIYGNTNRPSGVPDRISGSKSGTSASLVITGLQAEDEADYYCQSYDSSLSGWVFGGGTKLTVL
notes: also called Ab 69
B19: ADI-14586 (antibody, V domains shown)
VH: QVQLVQSGGGLVKPGGSLRLSCAASGFTFSDYYMSWIRQAPGKGLEWVSYISSSSSYTNYADSVKGRFTISRDNAKNSLYLQMNSLRAEDTAVYYCAKRTEYCSSTGCAYYFDYWGQGTLVTVSS
VL: QSVVTQPPSVSGAPGQRVTISCTGSSSNIGAGYDVHWYQQLPGTAPKLLIYGNSNRPSGVPDRFSGSKSGTSASLAITGLQAEDEADYYCQSYDSSLSGSVFGGGTKVTVL
B20: ADI-14587 (antibody, V domains shown)
VH: EVQLLESGGGLVKPGGSLRLSCAASGFTLTSYSMNWVRQAPGKGLEWVSSISSSSSYIHYADSVKGRFTISRDNAKNSLYLQMNSLRAEDTAVYYCAGSSLYPPFFDYWGQGTLVTVSS
VL: QSVVTQPPSVSGAPGQRVTISCTGSSSNLGAGYDVHWYQQLPGTAPKLLIYGNNNRPSGVPDRFSGSKSGTSASLAITGLQAEDEADYYCQSYDSSLSSVVFGGGTKLTVL
B21: ADI-14601 (antibody, V domains shown)
VH: EVQLLESGGGLVQPGGSLRLSCAASGFTFSSYAMNWVRQAPGKGLEWVSTISGSGSSTYYADSVEGRFTISRDNSKNTLYLQMNSLRAEDTAIYYCAKEPRDMYIQQWLDSWGQGTLVTVSS
VL: GIRLTQSPSSVSASVGDRVIITCRASQGIRSWLAWYQQKPGKAPKLLIYAASRLQSGVPSRFSGSGSETDFTLTISSLQPEDFASYYCQQANSFPLTFGGGTKVEIK
B22: ADI-14424 (antibody, V domains shown)
VH: QVQLVQSGAEVKKPGESLKISCKGPDSSFSVYWIAWVRQMPGKGLEWMGVIYVGDSDTRYSPSFRGQVTISADKSMNTAYLQWSSLKASDTAMYFCARHIPPGPFDLWGQGTMVTVSS
VL: NFMLTQPHSVSASPGKTITISCTRSSGSIASNSVQWYQQRPGSAPTNVIYEDDQRPLGVPNRFSGSIDSSSNSASLTISGLKTEDEADYYCHSYHNSDQVFGGGTKLTVL
notes: also called Ab 90
B23: ADI-14582 (antibody, V domains shown)
VH: QVQLVQSGAEVKKPGESLKISCKGPDSSFSVYWIAWVRQMPGKGLEWMGVIYVGDSDTRYSPSFRGQVTISADKSINTAYLQWSSLKASDTAMYFCARHIPPGPFDLWGQGTTVTVSS
VL: NFMLTQPHSVSASPGKTITISCTRSSGSIASNSVQWYQQRPGSAPTNVIYEDNQRPLGVPNRFSGSIDSSSNSASLTISGLKTEDEADYYCQSYHSSDQVFGGGTKVTVL
B24: ADI-14603 (antibody, V domains shown)
VH: QVQLVQSGAEVKKPGESLKISCKGSGYTFTNYWIGWVRQMPGKGLEWMGIIYPGDSDTRYSPSFQGQVTISADKSITTAYLQWRVLKASDTAMYYCATMRGSSSHFHHWGQGTLVTVSS
VL: DIQVTQSPSSLSASVGDRVTITCRAGQGIGNYLAWYQQKPGKVPKVLIYAASTLQSGVPSRFSGSGSGTEFTLTISSLQPEDVATYYCQKYNNAPYAFGQGTRLEIK
notes: also called Ab 131

Biological target: T1, RSV prefusion F (preF), subtype B (respiratory syncytial virus subtype B)
T1 construct: also called Prefusion subtype B
Test: BLI, IgG

Binder | Kd
B1 | 26.6 nM
B2 | 39.5 nM
B3 | 55.8 nM
B4 | 5.27 nM
B5 | 21.9 nM
B6 | 5.35 nM
B7 | 10.8 nM
B8 | 30.3 nM

Biological target: RSV prefusion F (preF), subtype B (respiratory syncytial virus, subtype B)
Test: BLI, IgG

Binder | Kd
B9 | 13.4 nM
B10 | 14.1 nM
B11 | 0.554 nM
B12 | 1.48 nM
B13 | 2.88 nM
B14 | 4.54 nM
B15 | 0.416 nM
B16 | 1.59 nM
B17 | 0.449 nM
B18 | 0.699 nM
B19 | 6.7 nM
B20 | 0.833 nM
B21 | 1.96 nM
B22 | 1.9 nM
B23 | 1.81 nM
B24 | 30.5 nM
